Assay results: patent publication US20220267412A1 (SERPLUS TECHNOLOGY, published 2022)
Blank lines part the entries; values can stand above or below the binder they belong to.

B1: human neutrophil cathepsin G (enzyme, UniProt P08311 21-244, looked up)
chain: IIGGRESRPHSRPYMAYLQIQSPAGQSRCGGFLVREDFVLTAAHCWGSNINVTLGAHNIQRRENTQQHITARRAIRHPQYNQRTIQNDIMLLQLSRRVRRNRNVNPVALPRAQEGLRPGTLCTVAGWGRVSMRRGTDTLREVQLRVQRDRQCLRIFGSYDPRRQICVGDRRERKAAFKGDSGGPLLCNNVAHGIVSYGKSSGVPPEVFTRVSSFLPWIRTTMRS
notes: Bought purified enzyme; also called CatG
B7: rhsB1M*, post-translationally modified (oxidized) monomeric form of rhsB1-cys344 (other)
chain: MEQLSSANTRFALDLFLALSENNPAGNIFISPFSISSAMAMVFLGTRGNTAAQLSKTFHFNTVEEVHSRFQSLNADINKRGASYILKLANRLYGEKTYNFLPEFLVSTQKTYGADLASVDFQHASEDARKTINQWVKGQTEGKIPELLASGMVDNMTKLVLVNAIYFKGNWKDKFMKEATTNAPFRLNKKDRKTVKMMYQKKKFAYGYIEDLKCRVLELPYQGEELSMVILLPDDIEDESTGLKKIEEQLTLEKLHEWTKPENLDFIEVNVSLPRFKLEESYTLNSDLARLGVQDLFNSSKADLSGMSGARDIFISKIVHKSFVEVNEEGTEAAAATAGIATFCMLMPEENFTADHPFLFFIRHNSSGSILFLGRFSSP
modifications: Cys-344 in an irreversibly oxidized state (chemical nature of the modification not determined)
B8: rhsB1D, intermolecular disulfide-bonded dimeric form of rhsB1-cys344 (other)
chain: MEQLSSANTRFALDLFLALSENNPAGNIFISPFSISSAMAMVFLGTRGNTAAQLSKTFHFNTVEEVHSRFQSLNADINKRGASYILKLANRLYGEKTYNFLPEFLVSTQKTYGADLASVDFQHASEDARKTINQWVKGQTEGKIPELLASGMVDNMTKLVLVNAIYFKGNWKDKFMKEATTNAPFRLNKKDRKTVKMMYQKKKFAYGYIEDLKCRVLELPYQGEELSMVILLPDDIEDESTGLKKIEEQLTLEKLHEWTKPENLDFIEVNVSLPRFKLEESYTLNSDLARLGVQDLFNSSKADLSGMSGARDIFISKIVHKSFVEVNEEGTEAAAATAGIATFCMLMPEENFTADHPFLFFIRHNSSGSILFLGRFSSP
modifications: intermolecular disulfide bond Cys-344:Cys-344 between the two monomers

Legend:
[1] = target: B8; assay: SDS-PAGE of enzyme:serpin complexes, no 2-ME
[2] = target: B7; assay: SDS-PAGE of enzyme:serpin complexes, no 2-ME
[3] = target: TLCK-treated bovine alpha chymotrypsin (bovine, UniProt P00766 1-13; P00766 16-146; P00766 149-245); assay: cell-based or functional assay
[4] = target: porcine pancreatic elastase (porcine, UniProt P00772 27-266); assay: cell-based or functional assay
Chain of porcine pancreatic elastase (P00772 27-266): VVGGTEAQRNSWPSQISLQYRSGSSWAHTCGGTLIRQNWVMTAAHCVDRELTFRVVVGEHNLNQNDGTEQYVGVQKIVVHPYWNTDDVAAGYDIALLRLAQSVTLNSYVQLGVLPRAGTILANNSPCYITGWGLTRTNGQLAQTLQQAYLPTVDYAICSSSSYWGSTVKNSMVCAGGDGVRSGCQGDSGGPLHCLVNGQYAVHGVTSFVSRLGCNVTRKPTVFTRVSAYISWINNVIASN

[5] = target: T1, human neutrophil elastase (human, UniProt P08246 30-247, limits assumed); assay: cell-based or functional assay
T1 sequence (looked up): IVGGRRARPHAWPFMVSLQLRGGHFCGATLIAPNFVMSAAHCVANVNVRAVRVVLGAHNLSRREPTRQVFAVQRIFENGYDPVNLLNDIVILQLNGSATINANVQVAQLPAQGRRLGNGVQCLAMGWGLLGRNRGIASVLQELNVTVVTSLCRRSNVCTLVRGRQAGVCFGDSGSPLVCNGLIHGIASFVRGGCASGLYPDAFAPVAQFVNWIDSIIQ

[6] = target: B1; assay: cell-based or functional assay
[7] = target: T2, neutrophil proteinase 3 (UniProt P24158 28-248, limits assumed); assay: cell-based or functional assay
T2 sequence (looked up): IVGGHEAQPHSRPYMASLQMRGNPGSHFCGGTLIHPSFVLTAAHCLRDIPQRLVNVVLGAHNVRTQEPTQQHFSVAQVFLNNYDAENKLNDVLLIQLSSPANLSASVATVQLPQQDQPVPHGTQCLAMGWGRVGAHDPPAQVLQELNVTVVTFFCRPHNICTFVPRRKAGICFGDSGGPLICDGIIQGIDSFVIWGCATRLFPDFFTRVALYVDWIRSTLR

Binder: B1
binding result [1]: binds
binding result [2]: binds

inhibition of chymotrypsin, monomer against dimer [3]: 2 fold more effective than rhsB1D
stoichiometry of inhibition (SOI), with 2-ME [3]: ~0.5 molar ratio inhibitor:enzyme
amount of purified protein to fully inhibit PPE (typically 160 nM, 200 uL, +40 mM 2-ME) [4]: 1 µg
stoichiometry of inhibition (SOI) [5]: ~2.1 molar ratio inhibitor:enzyme
SOI with CatG against SOI with BC [6]: ~2 fold of the SOI with BC
inhibition of CatG, reduced dimer against unreduced dimer [6]: ~2 fold against the unreduced dimer
inhibition of cathepsin G, monomer against dimer [6]: 2 fold more effective than rhsB1D
B2: recombinant human serpin B1, wild type (rhsB1-cys344), reduced active monomer (other)
chain: MEQLSSANTRFALDLFLALSENNPAGNIFISPFSISSAMAMVFLGTRGNTAAQLSKTFHFNTVEEVHSRFQSLNADINKRGASYILKLANRLYGEKTYNFLPEFLVSTQKTYGADLASVDFQHASEDARKTINQWVKGQTEGKIPELLASGMVDNMTKLVLVNAIYFKGNWKDKFMKEATTNAPFRLNKKDRKTVKMMYQKKKFAYGYIEDLKCRVLELPYQGEELSMVILLPDDIEDESTGLKKIEEQLTLEKLHEWTKPENLDFIEVNVSLPRFKLEESYTLNSDLARLGVQDLFNSSKADLSGMSGARDIFISKIVHKSFVEVNEEGTEAAAATAGIATFCMLMPEENFTADHPFLFFIRHNSSGSILFLGRFSSP

amount of purified protein to fully inhibit PPE (typically 160 nM, 200 uL, +40 mM 2-ME) [4]: 3.5 µg
B3: human serpin B1 C344G variant (other)
chain: MEQLSSANTRFALDLFLALSENNPAGNIFISPFSISSAMAMVFLGTRGNTAAQLSKTFHFNTVEEVHSRFQSLNADINKRGASYILKLANRLYGEKTYNFLPEFLVSTQKTYGADLASVDFQHASEDARKTINQWVKGQTEGKIPELLASGMVDNMTKLVLVNAIYFKGNWKDKFMKEATTNAPFRLNKKDRKTVKMMYQKKKFAYGYIEDLKCRVLELPYQGEELSMVILLPDDIEDESTGLKKIEEQLTLEKLHEWTKPENLDFIEVNVSLPRFKLEESYTLNSDLARLGVQDLFNSSKADLSGMSGARDIFISKIVHKSFVEVNEEGTEAAAATAGIATFGMLMPEENFTADHPFLFFIRHNSSGSILFLGRFSSP

amount of purified protein to fully inhibit PPE (typically 160 nM, 200 uL, +40 mM 2-ME) [4]: 1.5 µg
B4: human serpin B1 C344V variant (other)
chain: MEQLSSANTRFALDLFLALSENNPAGNIFISPFSISSAMAMVFLGTRGNTAAQLSKTFHFNTVEEVHSRFQSLNADINKRGASYILKLANRLYGEKTYNFLPEFLVSTQKTYGADLASVDFQHASEDARKTINQWVKGQTEGKIPELLASGMVDNMTKLVLVNAIYFKGNWKDKFMKEATTNAPFRLNKKDRKTVKMMYQKKKFAYGYIEDLKCRVLELPYQGEELSMVILLPDDIEDESTGLKKIEEQLTLEKLHEWTKPENLDFIEVNVSLPRFKLEESYTLNSDLARLGVQDLFNSSKADLSGMSGARDIFISKIVHKSFVEVNEEGTEAAAATAGIATFVMLMPEENFTADHPFLFFIRHNSSGSILFLGRFSSP

loss of PR3 inhibitory activity, 2-fold molar excess of inhibitor [7]: ~40 % of inhibitory activity lost
B5: peroxynitrite oxidized (inactivated) wild-type rhsB1 (other)
chain: MEQLSSANTRFALDLFLALSENNPAGNIFISPFSISSAMAMVFLGTRGNTAAQLSKTFHFNTVEEVHSRFQSLNADINKRGASYILKLANRLYGEKTYNFLPEFLVSTQKTYGADLASVDFQHASEDARKTINQWVKGQTEGKIPELLASGMVDNMTKLVLVNAIYFKGNWKDKFMKEATTNAPFRLNKKDRKTVKMMYQKKKFAYGYIEDLKCRVLELPYQGEELSMVILLPDDIEDESTGLKKIEEQLTLEKLHEWTKPENLDFIEVNVSLPRFKLEESYTLNSDLARLGVQDLFNSSKADLSGMSGARDIFISKIVHKSFVEVNEEGTEAAAATAGIATFCMLMPEENFTADHPFLFFIRHNSSGSILFLGRFSSP
modifications: oxidized by peroxynitrite (Cys-344 per the filing; chemical nature not determined)

amount of purified protein to fully inhibit PPE (typically 160 nM, 200 uL, +40 mM 2-ME) [4]: 1 µg
B6: human serpin B1 C344A variant (other)
chain: MEQLSSANTRFALDLFLALSENNPAGNIFISPFSISSAMAMVFLGTRGNTAAQLSKTFHFNTVEEVHSRFQSLNADINKRGASYILKLANRLYGEKTYNFLPEFLVSTQKTYGADLASVDFQHASEDARKTINQWVKGQTEGKIPELLASGMVDNMTKLVLVNAIYFKGNWKDKFMKEATTNAPFRLNKKDRKTVKMMYQKKKFAYGYIEDLKCRVLELPYQGEELSMVILLPDDIEDESTGLKKIEEQLTLEKLHEWTKPENLDFIEVNVSLPRFKLEESYTLNSDLARLGVQDLFNSSKADLSGMSGARDIFISKIVHKSFVEVNEEGTEAAAATAGIATFAMLMPEENFTADHPFLFFIRHNSSGSILFLGRFSSP

Binder: B7
stoichiometry of inhibition (SOI), with or without 2-ME [3]: ~3 molar ratio inhibitor:enzyme
stoichiometry of inhibition (SOI), with 2-ME [5]: ~13 molar ratio inhibitor:enzyme

Binder: B8
stoichiometry of inhibition (SOI), no 2-ME [3]: ~1 molar ratio inhibitor:enzyme
SOI with CatG against SOI with BC [6]: ~2 fold of the SOI with BC
